Target: microtubules preformed from purified tubulin (taxol-stabilized) (UniProt Q6B856)
Experiment: co-sedimentation

purified recombinant Flag-tagged Dp260
stoichiometry N (α-β tubulin heterodimers per Dp260): 1.4
